Test results: patent US20240336909A1 (HARPOON THERAPEUTICS, published 2024)

T1: human EpCAM protein (human, UniProt P16422 24-265)
T1 construct: biotinylated in the Octet assays; also called hu EpCAM; biotinylated human EpCAM protein
T1 sequence (looked up): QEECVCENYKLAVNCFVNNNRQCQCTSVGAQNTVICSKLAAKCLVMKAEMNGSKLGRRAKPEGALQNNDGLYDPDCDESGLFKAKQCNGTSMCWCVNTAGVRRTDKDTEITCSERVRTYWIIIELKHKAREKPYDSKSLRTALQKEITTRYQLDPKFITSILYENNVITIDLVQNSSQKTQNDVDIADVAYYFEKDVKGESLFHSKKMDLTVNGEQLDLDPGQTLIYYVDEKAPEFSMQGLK


How the values were obtained:
cynomolgus EpCAM protein = target: T2, cynomolgus EpCAM protein (cynomolgus monkey); test: colorimetric ELISA
T2 construct: biotinylated in the Octet assays; also called cy EpCAM; cynomolgus monkey EpCAM
Source text: (§1) Llamas were immunized with purified EpCAM protein expressed in Expi293 cells. A phage display library for expression of heavy variable antibody domains was constructed from circulating B cells. See van der Linden, de Geus, Stok, Bos,van Wassenaar, Verrips, and Frenken. 2000. J Immunol Methods 240:185-195. Phage clones were screened for binding to EpCAM by expressing anti-EpCAM proteins in E coli, preparing periplasmic extracts, and proteins were screened for human and cynomolgus EpCAM binding activity using a colorimetric ELISA.

human EpCAM protein = target: T1, human EpCAM protein; test: colorimetric ELISA
Source text: as §1

T2 sequence (Q1WER1 24-265): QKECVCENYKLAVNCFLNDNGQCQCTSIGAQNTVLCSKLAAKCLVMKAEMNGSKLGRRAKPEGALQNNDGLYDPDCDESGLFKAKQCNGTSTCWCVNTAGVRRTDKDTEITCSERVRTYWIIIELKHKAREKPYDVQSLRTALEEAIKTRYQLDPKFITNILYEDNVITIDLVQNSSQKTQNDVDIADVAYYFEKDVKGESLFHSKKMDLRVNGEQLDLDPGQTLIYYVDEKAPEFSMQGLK

Binder | Cynomolgus EpCAM/Control (cynomolgus EpCAM protein) [ratio] | ELISA absorbance (cynomolgus EpCAM protein) [absorbance] | ELISA absorbance (human EpCAM protein) [absorbance] | Human EpCAM/Control (human EpCAM protein) [ratio]
Llama anti-EpCAM single domain antibody EPL13 (VHH, E. coli periplasmic extract) VHH: QVQLQESGGGLVQPGGSLRLSCAASGFAFGNHWMYWYRQAPGRGRELVASISSGGSTNYVDSVKGRFTISRDNARNTVYLQMYSLKPEDTAVYYCGTSDNWGQGTQVTVSS | 23 | 4 | 2.9 | 17
Llama anti-EpCAM single domain antibody EPL189 (VHH, E. coli periplasmic extract) VHH: QVQLQESGGGLVQPGGSLRLSCAASGRINSINTMGWYRQAPGNQRELVAEITRGGTTNYADSVQGRYAISRDNAKNLVYLQMNSLKPEDTDVYYCNAQTFPTFSRPTGLDYWGQGTQVTVSS | 8 | 0.9 | 1.3 | 12
Llama anti-EpCAM single domain antibody EPL31 (VHH, E. coli periplasmic extract) VHH: QVQLQESGGGLVHTGGSLRLSCAASGDTFLRYAMGWFRQAPGKEREFVAAITWNGGNTDYAGSLKGRFTISRDNTKNTVYLQMNSLKPEDTAVYYCAADLTFGLASSHYQYDYWGQGTQVTVSS | 6 | 0.5 | 0.6 | 7
Llama anti-EpCAM single domain antibody EPL136 (VHH, E. coli periplasmic extract) VHH: QVQLQESGGGLVQPGGSLRLSCAASGDTFLRYAMGWFRQAPGKEREFVAAITWNGGNTDYAGSLKGRFTISRDNTKNTVYLQMNSLKPEDTAVYYCAADLTFGLASSHYQYDYWGQGTQVTVSS | 13 | 1.3 | 0.9 | 9
Llama anti-EpCAM single domain antibody EPL109 (VHH, E. coli periplasmic extract) VHH: QVQLQESGGGLVQPGGSLRLSCASSGFTLDDYTIGWFRQAPGKEREGVSCISRRDDSTYYADSVKGRFTISRDNAKNTVDLQMISLRPEDTAVYYCAATPRSYTLRCLGKFDFQGQGTQVTVSS | 2 | 0.1 | 0.4 | 5
Llama anti-EpCAM single domain antibody EPL15 (VHH, E. coli periplasmic extract) VHH: QVQLQESGGGSVLAGGSLRLSCAASGFTFSSYYMSWVRQAPGKGLEWVSGIHYTGDWTNYADSVKGRFTISRDNAKNELYLEMNNLKPEDTAVYYCARGSDKGQGTQVTVSS | 35 | 3.2 | 0.7 | 8
Llama anti-EpCAM single domain antibody EPL127 (VHH, E. coli periplasmic extract) VHH: QVQLQESGGGLVQAGGSLRLSCAAPGFAFNDHAILWFRQAPGKEREGVSEICRDGTTYYTDSVKGRFTISSDNAKNTVYLQMNSVKTDDTAVYYCAVDRRRYYCSGNRAFSSDYYYWGQGTQVTVSS | 11 | 0.9 | 0.4 | 5
Llama anti-EpCAM single domain antibody EPL86 (VHH, E. coli periplasmic extract) VHH: QVQLQESGGGLVQPGGSLRLSCAASGFTFSDWAMSWVRQAPGKGLEWVSGIHYGDHTTHYADFVKGRFTISRDDAKNTLYLQMNSLKPEDTAVYYCARGSTKGQGTQVTVSS | 31 | 3 | 0.8 | 8
Llama anti-EpCAM single domain antibody EPL20 (VHH, E. coli periplasmic extract) VHH: QVQLQESGGGLVQAGGSLKLSCAASGNVFRAATMAWYRQAPEKQREMVATIASGGTTNYADFVKGRFTISRDNAKNTVYLQMNTLKPEDTAVYYCNAGYLTSLGPKNYWGQGTQVTVSS | 4 | 2.2 | 2.9 | 6

Next, values leading:

Cynomolgus EpCAM/Control (cynomolgus EpCAM protein) [ratio] | ELISA absorbance (cynomolgus EpCAM protein) [absorbance] | ELISA absorbance (human EpCAM protein) [absorbance] | Human EpCAM/Control (human EpCAM protein) [ratio] | Binder
29 | 3.1 | 2 | 20 | Llama anti-EpCAM single domain antibody EPL129 (VHH, E. coli periplasmic extract) VHH: QVQLQESGGGLVQAGGSLRLSCAASGFAFGNHWMYWYRQAPGRGRELVASISSGGSTNYVDSVKGRFTISRDNARNTVYLQMYSLRPEDTAVYYCGTSDNWGQGTQVTVSS
7 | 0.6 | 0.4 | 5 | Llama anti-EpCAM single domain antibody EPL55 (VHH, E. coli periplasmic extract) VHH: QVQLQESGGGLVQAGGSLRLSCAASGDTFLRYAMGWFRQAPGKEREFVAAITWNGGNTDYAGSLKGRFTISRDNTKNTVYLQMNSLKPEDTAVYYCAADLTFGLASSHYQYDYWGQGTQVTVSS
27 | 3.4 | 1.7 | 14 | Llama anti-EpCAM single domain antibody EPL57 (VHH, E. coli periplasmic extract) VHH: QVQLQESGGGLVHTGGSLRLSCAFSGDTFLRYAMGWFRQAPGKEREFVAAITWNGGNTDYADSLKGRFTISRDNTKNTVYLQMNSLRPEDTAVYYCAADLTFGLASSHYQYDYWGQGTQVTVSS
36 | 3.1 | 0.9 | 10 | Llama anti-EpCAM single domain antibody EPL34 (VHH, E. coli periplasmic extract) VHH: QVQLQESGGGSVQAGGSLRLSCAASGFTFSSYYMSWVRQAPGKGLEWVSGIHYTGDWTNYADSVKGRFTISRDNAKNELYLEMNNLKPEDTAVYYCARGSDKGQGTQVTVSS
3 | 0.6 | 0.9 | 4 | Llama anti-EpCAM single domain antibody EPL117 (VHH, E. coli periplasmic extract) VHH: QVQLQESGGGLVQAGGSLRLSCAASGNIVRMTNMAWYRQAPGKQREFVATISAGGSTTYVDSVKDRFTISRDNTKNTVYLQMNYLKPEDTAVYYCATGSILTNRGAIPGSWGHGTQVTVSS
21 | 2.2 | 3.1 | 31 | Llama anti-EpCAM single domain antibody EPL153 (VHH, E. coli periplasmic extract) VHH: QVQLQESGGGLVQPGGSLRLSCAASGFTFSDWAMSWVRQAPGKGLEWVSSIHYGDHTTHYADFVKGRFTISRDDAKNTLYLQMNSLKPEDTAVYYCEKGTTRGQGTQVTVSS
4 | 2.3 | 3.2 | 5 | Llama anti-EpCAM single domain antibody EPL120 (VHH, E. coli periplasmic extract) VHH: QVQLQESGGGLVQAGGSLRLSCAASGFIFRAASISWYRQSPGNERELVATINSGGFTNYADSVLGRFTISRDNAKNTGYLQMNSLKPEDTAVYFCAATFLRSDGQPPIWGQGTQVTVSS
4 | 2.8 | 3.4 | 4 | Llama anti-EpCAM single domain antibody EPL152 (VHH, E. coli periplasmic extract) VHH: QVQLQESGGGLVQAGGSLRLSCVHSGSIFRASTMAWYRQAPGKQRELVAQIMSGGGTNYAGSVKGRFTISRDNANNTVYLQMNSLKPEDTAVYYCNAAQITSWGPKVYWGQGTQVTVSS
8 | 3.5 | 3.5 | 8 | Llama anti-EpCAM single domain antibody EPL125 (VHH, E. coli periplasmic extract) VHH: QVQLQESGGGLVQAGGSLRLSCAASGNVFRAATMAWYRQVPEKQREMVATIASGGTTNYADFVKGRFTISRDNAKNTVYLQMNTLKPEDTAVYYCNALYLTSLGPKSYWGQGTQVTVSS
